From PMC13140594, “Characterization of high affinity IgM and IgG monoclonal antibodies against norovirus variants GII.4 and GII.17” (Protein Science : A Publication of the Protein Society, 2026) come the findings set out here.

What all share (conditions): both partners purified
Assay [1] has as its target T1, norovirus GII.17 P‐domain (Norovirus GII.17, GenBank AKI30060 …, strain).
T1 construct: Cloned into a modified pMAL-c6T vector; also called P‐domain of GII.17 strain; norovirus P‐domain GII.17 strain; source: E. coli BL21 (DE3), purified (Ni-NTA Agarose, SEC Superdex 75)
T1 chain: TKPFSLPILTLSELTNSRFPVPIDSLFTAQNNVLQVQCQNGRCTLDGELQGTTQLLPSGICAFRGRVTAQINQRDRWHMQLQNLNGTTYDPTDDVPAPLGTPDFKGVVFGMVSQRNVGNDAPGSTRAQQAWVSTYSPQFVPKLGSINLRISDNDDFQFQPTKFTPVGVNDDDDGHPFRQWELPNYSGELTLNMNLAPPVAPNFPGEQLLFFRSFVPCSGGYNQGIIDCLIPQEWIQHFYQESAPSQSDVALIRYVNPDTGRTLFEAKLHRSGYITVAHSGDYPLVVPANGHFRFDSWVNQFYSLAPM
As to the kind of experiment: SPR; Biacore 8K; antibody immobilised, P-domain as analyte; 1:1 kinetic model.

The target of assay [2] is T1, norovirus GII.17 P‐domain. The assay is described as follows: SPR; Biacore 8K; P-domain immobilised on CM5 by amine coupling, antibody as analyte; PBST, 30 uL/min, 180 s association, 600 s dissociation; 1:1 kinetic model. For orientation: SPR reads the build-up and loss of mass on a sensor chip optically.
For assay [3], the target named is T1, norovirus GII.17 P‐domain. As to the kind of experiment: SPR; GII.17 P-domain immobilised on CM5 at 138 r.u., antibody as analyte; PBST; 1:1 kinetic model.
For assay [4], the target named is T1, norovirus GII.17 P‐domain. The assay is described as follows: SPR; GII.17 P-domain immobilised on CM5 at 458 r.u., antibody as analyte; PBST; 1:1 kinetic model.
For assay [5], the target named is T1, norovirus GII.17 P‐domain. The assay is described as follows: SPR; GII.17 P-domain immobilised on CM5 at 922 r.u., antibody as analyte; PBST; 1:1 kinetic model.
For assay [6], the target named is T1, norovirus GII.17 P‐domain. As to the kind of experiment: SPR; GII.17 P-domain immobilised on CM5 at 1059 r.u., antibody as analyte; PBST; 1:1 kinetic model.
Assay [7] has as its target T1, norovirus GII.17 P‐domain. As to the kind of experiment: SPR; GII.17 P-domain immobilised on CM5 at 3830 r.u., antibody as analyte; PBST; 1:1 kinetic model.
The target of assay [8] is T1, norovirus GII.17 P‐domain. As to the kind of experiment: SPR; GII.17 P-domain immobilised on CM5 at 4577 r.u., antibody as analyte; PBST; 1:1 kinetic model.

B1: 14C2 IgG (antibody, V domains shown)
VH: QAYLQQSGAELMKPGASMRISCKATGYTFSNYWIEWVKQRPGHGLEWIGEILPGGGGTDYNEKFKGKATFTADTSSNTAYMQLSSLTSEDSAVYYCARSTFYGYDGGLYYFPMDYWGQGTSVTVSP
VL: DIVMTQSPAIMSASPGEKVTMTCSTNSSISYMHWYQQKPGTSPKRWIYDTSKLASGVPARFSGSGSGTSYSLTISSMEAEDAATYYCHQRSSYPWTFGGGTKLEIK
notes: variable domain of the heavy chain of 14C2; light chain of 14C2; Mouse IgG2b; also called IgG antibody 14C2; source: mouse hybridoma supernatant, purified (HiTrap Protein G HP, SEC Superdex 200); copies: 2 + 2
In the case of B1, in assay [1], the Kd (commonly the free concentration of one partner at which half of the binding sites on the other are occupied at equilibrium, for simple one-to-one binding) was found to be 1.55 nM; the koff – broadly, a measure of how fast the partners let go of each other – is 0.000129 s⁻¹; the kon (usually the second-order rate constant of association) stood at 82900 M⁻¹ s⁻¹. Moreover, in assay [2], the Kd amounted to 0.000921 nM, the koff came to 1.07e-07 s⁻¹ and the kon is 116000 M⁻¹ s⁻¹.

B2: 1‐arm IgG (Fab region of IgG antibody 14C2) (Fab, V domains shown)
VH: B1 VH
VL: B1 VL
notes: Fab region of the heavy chain of 14C2; light chain of 14C2; gene codon-optimised for mammalian cells; also called 14C2 Fab; source: Expi293 cells, purified (Ni-NTA Agarose, SEC Superdex 75); not shown: His tag (inferred from the Ni-NTA purification)
Consider B2, for which the Kd turned out to be 170 nM in assay [3]; 241 nM in assay [4]; 281 nM in assay [5]; 204 nM in assay [6]; 135 nM in assay [7]; 167 nM in assay [8]. Moreover, the koff stood at 0.0025 s⁻¹ in assay [3]; 0.00246 s⁻¹ in assay [4]; 0.0024 s⁻¹ in assay [5]; 0.00297 s⁻¹ in assay [6]; 0.0034 s⁻¹ in assay [7]; 0.0026 s⁻¹ in assay [8]. Further, the kon in assay [3] turned out to be 14700 M⁻¹ s⁻¹; in assay [4], 10200 M⁻¹ s⁻¹; in assay [5] it was 8550 M⁻¹ s⁻¹; in assay [6], 14600 M⁻¹ s⁻¹; in assay [7], 25100 M⁻¹ s⁻¹; in assay [8], 15600 M⁻¹ s⁻¹.
